# Experimental data taken from patent publication US20260250338A1 (Molecular Partners, published 2026).
# T1: CD32a expressed on Jurkat-NFAT-CD32a reporter cells (Invivogen jktl-nfat-cd32) (UniProt P12318 34-317, limits assumed)
# T1 construct: whole, on cells; also called Jurkat-Lucia NFAT-CD32a Reporter cells; Fc receptor CD32a
# T1 sequence (looked up): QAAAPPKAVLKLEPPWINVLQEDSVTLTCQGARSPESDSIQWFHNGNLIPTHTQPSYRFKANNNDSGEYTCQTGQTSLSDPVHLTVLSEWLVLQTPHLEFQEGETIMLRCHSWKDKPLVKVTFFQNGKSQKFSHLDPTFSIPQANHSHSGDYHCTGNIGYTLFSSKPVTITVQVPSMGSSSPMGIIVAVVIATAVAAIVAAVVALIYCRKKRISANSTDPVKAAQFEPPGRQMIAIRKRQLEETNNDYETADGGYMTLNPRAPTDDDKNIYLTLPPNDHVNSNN
# T2: biotinylated cynomolgus CD16 target (bio-cCD16 of SEQ ID NO: 76) (cynomolgus monkey, biotinylated)
# T2 construct: also called Cyno CD16a
# T2 chain: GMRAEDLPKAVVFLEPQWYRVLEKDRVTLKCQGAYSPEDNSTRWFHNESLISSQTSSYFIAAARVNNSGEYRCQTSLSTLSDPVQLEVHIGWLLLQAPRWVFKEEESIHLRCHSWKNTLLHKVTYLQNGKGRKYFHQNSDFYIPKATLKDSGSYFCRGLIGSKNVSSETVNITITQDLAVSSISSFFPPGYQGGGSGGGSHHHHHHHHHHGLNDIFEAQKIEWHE
# Key:
# [1] = molecular target: T3, CD16aV allotype of human CD16a expressed on Jurkat-Lucia-NFAT-CD16 Reporter cells (InvivoGen) (human, UniProt P08637 17-254); experiment: flow cytometry on Jurkat-CD16aV cells, serial dilutions, detection with Penta-His Alexa Fluor 647
# T3 construct: whole, on cells; also called CD16a expressing cells; Jurkat CD16aV
# T3 sequence (P08637 17-254 F176V): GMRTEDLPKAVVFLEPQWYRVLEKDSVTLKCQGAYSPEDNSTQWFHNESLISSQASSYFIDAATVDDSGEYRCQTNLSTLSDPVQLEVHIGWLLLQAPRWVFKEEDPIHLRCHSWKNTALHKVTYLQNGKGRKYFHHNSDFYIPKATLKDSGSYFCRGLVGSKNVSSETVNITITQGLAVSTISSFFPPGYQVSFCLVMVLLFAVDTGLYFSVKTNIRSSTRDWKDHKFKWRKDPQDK
# [2] = molecular target: T4, full length human CD16b stably expressed on transduced WT Jurkat cells (human, UniProt O75015 17-200); experiment: flow cytometry on Jurkat-CD16b cells, serial dilutions, detection with Penta-His Alexa Fluor 647
# T4 construct: whole, on cells; also called CD16b expressing cells; Jurkat CD16b
# T4 sequence (O75015 17-200): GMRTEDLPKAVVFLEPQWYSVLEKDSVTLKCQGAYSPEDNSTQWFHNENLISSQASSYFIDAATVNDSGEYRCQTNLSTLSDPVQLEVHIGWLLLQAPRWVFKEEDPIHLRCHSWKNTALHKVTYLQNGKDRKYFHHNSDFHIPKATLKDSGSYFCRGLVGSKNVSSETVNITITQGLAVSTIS
# [3] = molecular target: T3, CD16aV allotype of human CD16a …; experiment: cell-based or functional assay
# [4] = molecular target: T4, full length human CD16b stably …; experiment: flow cytometry on Jurkat-CD16b cells, 5-fold serial dilutions, detection with Penta-His Alexa Fluor 488
# Procedure: (§1) Serial dilutions (5-fold) of the constructs were incubated 30 min at 4° C. with 50000 cells in a 96-well plate. […] Cold buffer was added, then cells were spun down prior to supernatant removal. Cells were then fixed with Cell fix buffer (BD) and signal was measured by flow cytometry.
# [5] = molecular target: T1, CD32a expressed on Jurkat-NFAT-CD32a …; experiment: flow cytometry on Jurkat-NFAT-CD32a cells, 4-fold serial dilutions, detection with anti-DARPin 1.1.1 antibody
# Procedure: Serial dilutions (4-fold) of the constructs were incubated 30 min at 4° C. with 50000 cells in a 96-well plate. Detection antibody (anti-DARPin 1.1.1 Alexa Fluor […]) was subsequently added to the wells (2 μg/ml diluted in FACS buffer) and incubated at 4° C. for 30 min. Cold buffer was added, then cells were spun down prior to supernatant removal. Cells were then fixed with Cell fix buffer (BD) and signal was measured by flow cytometry.
# [6] = molecular target: T3, CD16aV allotype of human CD16a …; experiment: cell-based or functional assay; remark: listed apart in the source
# [7] = molecular target: T3, CD16aV allotype of human CD16a …; experiment: flow cytometry on Jurkat-CD16aV cells, 5-fold serial dilutions, detection with Penta-His Alexa Fluor 488
# Procedure: as §1
# [8] = molecular target: T5, biotinylated human CD16aV target (bio-CD16aV of SEQ ID NO: 72) (human, UniProt P08637 17-208, biotinylated (Sulfo-NHS-LC-Biotin kit)); experiment: SPR (ProteOn XPR36), bio-CD16aV immobilised on NLC chip, construct injected at 100 nM and 1:3 dilutions, PBST, 1:1 Langmuir fit
# T5 construct: also called recombinant CD16a target
# T5 sequence (P08637 other isoform, or with tags, fused parts or gaps): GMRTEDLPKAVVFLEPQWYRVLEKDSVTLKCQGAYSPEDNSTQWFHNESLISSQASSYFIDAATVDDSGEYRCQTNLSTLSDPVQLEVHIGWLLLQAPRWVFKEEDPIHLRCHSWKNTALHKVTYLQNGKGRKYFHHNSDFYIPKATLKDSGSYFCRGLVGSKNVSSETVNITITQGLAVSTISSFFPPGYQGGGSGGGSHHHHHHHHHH
# Procedure: SPR measurements were performed using a ProteOn XPR36 instrument (BioRad). […] The signals were double referenced against the running buffer (PBST) treated control lanes.
# [9] = molecular target: T2, biotinylated cynomolgus CD16 target …; experiment: SPR (ProteOn XPR36), biotinylated target on neutravidin chip, DARPin injected at 100 nM and 1:3 dilutions, 1:1 Langmuir fit
# Procedure: (§2) SPR measurements were performed using a ProteOn XPR36 instrument (BioRad). Each of biotinylated human target (bio-CD16aV of SEQ ID NO: 72) and biotinylated cyno target (bio-cCD16 of SEQ ID NO: 76) were immobilized on a neutravidin chip (NAHLC200M, Xantec ProteOn Sensor Chip) to a level of about 320 RU. The interactions of purified CD16a-specific ankyrin construct with bio-CD16aV or bio-cCD16 were measured by injecting the DARPins at 100 nM (and 1:3 dilutions) with an association of 180 s and dissociation of 600 s using a constant flow of 30 μl/min. The target was regenerated between the individual measurements using 31 mM H3PO4. The signals were double referenced against the running buffer (PBST) treated control lanes. The KD were calculated with a 1:1 Langmuir model fitting from the estimated on- and off-rates using standard procedures known to the person skilled in the art.
# [10] = molecular target: T5, biotinylated human CD16aV target …; experiment: as above
# Procedure: as §2
binding result [1],binding result [2],"EC50 (pM), ADCC reporter assay (luminescence), SKOV3 target cells, E:T 5:1, 5 h [3] [pM]",binding result [4],Binder,further results
binds,no binding (tested: 1000 nM),–,–,"Construct No. 17 (SEQ ID NO: 20), 2D (HER2 × CD16a), DARPin #5 with N-terminal HER2 binder of SEQ ID NO: 9 (designed binder, Bispecific DARPin; also called Construct 17) MRGSHHHHHHDYKDDDDKPTPTPTGSDLGIKLLFAAAKGQDDEVRELLKAGADVNAKDFQGVTPLHIAAQSGHLEIVEVLLKAGADVNAKDVTGDTPLHLAAQHGHLEIVEVLLKAGADVNAQDERGWTPADLAADWGHEDIAEVLQKAAGSPTPTPTTPTPTPTTPTPTPTGSDLGAKLLRAAKKGQDDEVRELLKAGADVNAKDELGFTPLHVAAEEGHLEIVEVLLKAGADVNAKDSWGATPLHVAAWVGHLEIVEVLLKAGADVNAQDQEGQTPADLAAEAGHEDIAEVLQKAA",–
binds,no binding (tested: 1000 nM),–,–,"Construct No. 16 (SEQ ID NO: 19), 2D (HER2 × CD16a), DARPin #4 with N-terminal HER2 binder of SEQ ID NO: 9 (designed binder, Bispecific DARPin; also called Construct 16) MRGSHHHHHHDYKDDDDKPTPTPTGSDLGIKLLFAAAKGQDDEVRELLKAGADVNAKDFQGVTPLHIAAQSGHLEIVEVLLKAGADVNAKDVTGDTPLHLAAQHGHLEIVEVLLKAGADVNAQDERGWTPADLAADWGHEDIAEVLQKAAGSPTPTPTTPTPTPTTPTPTPTGSDLGEKLLLAAALGQDDEVRELLKAGADVNAKDVQGSTPLHLAAVEGHLEIVEVLLKAGADVNAKDQWGQTPLHVAAIWGHLEIVEVLLKAGADVNAQDELGKTPADLVALQGHEDIAEVLQKAA",–
binds,no binding (tested: 1000 nM),–,–,"Construct No. 18 (SEQ ID NO: 21), 2D (HER2 × CD16a), DARPin #6 with N-terminal HER2 binder of SEQ ID NO: 9 (designed binder, Bispecific DARPin; also called Construct 18) MRGSHHHHHHDYKDDDDKPTPTPTGSDLGIKLLFAAAKGQDDEVRELLKAGADVNAKDFQGVTPLHIAAQSGHLEIVEVLLKAGADVNAKDVTGDTPLHLAAQHGHLEIVEVLLKAGADVNAQDERGWTPADLAADWGHEDIAEVLQKAAGSPTPTPTTPTPTPTTPTPTPTGSDLGKKLLEAAEEGQDDEVRELLKAGADVNAKDEWGSTPLHIAAWVGHLEIVEVLLKAGADVNAKDSLGATPLHLAAEAGHLEIVEVLLKAGADVNAQDLKGKTPADLAALEGHEDIAEVLQKAA",–
–,–,0.7,no binding (tested: 1000 nM),"Construct No. 4 (SEQ ID NO: 15), 2D (HER2 × CD16a), DARPin #3 with N-terminal HER2 binder of SEQ ID NO: 9 (designed binder, Bispecific DARPin; also called Construct 4) MRGSHHHHHHGSDLGIKLLFAAAKGQDDEVRELLKAGADVNAKDFQGVTPLHIAAQSGHLEIVEVLLKAGADVNAKDVTGDTPLHLAAQHGHLEIVEVLLKAGADVNAQDERGWTPADLAADWGHEDIAEVLQKAAGSPTPTPTTPTPTPTTPTPTPTGSDLGKKLLQAARAGQLDEVRELLKAGADVNAKDEQGRTPLHIAAASGHLEIVEVLLKAGADVNAKDWFGITPLHIAAWWGHLEIVEVLLKAGADVNAKDQEGRTPLHIAAAIGHLEIVEVLLKAGADVNAQDKSGKTPADLAARAGHQDIAEVLQKAA",–
–,–,0.37,–,"Construct No. 7 (SEQ ID NO: 10), 2D (HER2 × CD16a), DARPin #2 with N-terminal HER2 binder of SEQ ID NO: 8 (designed binder, Bispecific DARPin; also called Construct 7) MRGSHHHHHHGSDLGKKLLEAARAGQDDEVRELLKAGADVNAKDEYGLTPLYLATAHGHLEIVEVLLKAGADVNAVDAIGFTPLHLAAFIGHLEIAEVLLKAGADVNAQDKFGKTPADIAAGAGNEDIAEVLQKAAGSPTPTPTTPTPTPTTPTPTPTGSDLGQKLLRAAKKGQDDEVRELLKAGADVNAKDEQGWTPLHIAAWKGHLEIVEVLLKAGADVNAKDVFDWTPLHVAAHFGHLEIVEVLLKAGADVNAQDRAGETPADLAAQAGHEDIAEVLQKAA","binding result [5]: no binding (tested: 400 nM); EC50 ADCC reporter assay (CD16a) (pM), SKOV3 target cells, E:T 1:1, 24 h [6]: 4 pM"
–,–,–,no binding (tested: 1000 nM),"Construct No. 2 (1D CD16a; DARPin #3 of SEQ ID NO: 3 with N-terminal His tag) (designed binder, also called Construct 2) MRGSHHHHHHGSDLGKKLLQAARAGQLDEVRELLKAGADVNAKDEQGRTPLHIAAASGHLEIVEVLLKAGADVNAKDWFGITPLHIAAWWGHLEIVEVLLKAGADVNAKDQEGRTPLHIAAAIGHLEIVEVLLKAGADVNAQDKSGKTPADLAARAGHQDIAEVLQKAA",EC50 (read off the curve) [7]: ~20 nM
–,–,–,no binding (tested: 1000 nM),"Construct No. 1 (1D CD16a; DARPin #2 of SEQ ID NO: 2 with N-terminal His tag) (designed binder, also called Construct 1) MRGSHHHHHHGSDLGQKLLRAAKKGQDDEVRELLKAGADVNAKDEQGWTPLHIAAWKGHLEIVEVLLKAGADVNAKDVFDWTPLHVAAHFGHLEIVEVLLKAGADVNAQDRAGETPADLAAQAGHEDIAEVLQKAA",binding result [7]: binds; Kd [8]: 3.3 nM; Kd [9]: 3.41 nM; Kd [10]: 5.94 nM
–,–,–,–,DARPin #7 (SEQ ID NO: 7) with N-terminal His tag (designed binder) MRGSHHHHHHGSDLGQKLLRAAKKGQDDEVRELLKAGADVNAKDEQGWTPLHNAAWKGHLEIVEVLLKAGADVNAKDVFDWTPLHVAAHFGHLEIVEVLLKAGADVNAQDRAGETPADLAAQAGHEDIAEVLQKAA,Kd [9]: 0.904 nM; Kd [10]: 1.98 nM
–,–,0.19,no binding (tested: 1000 nM),"Construct No. 3 (SEQ ID NO: 13), 2D (CD16a × HER2), DARPin #2 with C-terminal HER2 binder of SEQ ID NO: 9 (designed binder, Bispecific DARPin; also called Construct 3) MRGSHHHHHHGSDLGQKLLRAAKKGQDDEVRELLKAGADVNAKDEQGWTPLHIAAWKGHLEIVEVLLKAGADVNAKDVFDWTPLHVAAHFGHLEIVEVLLKAGADVNAQDRAGETPADLAAQAGHEDIAEVLQKAAGSPTPTPTTPTPTPTTPTPTPTGSDLGIKLLFAAAKGQDDEVRELLKAGADVNAKDFQGVTPLHIAAQSGHLEIVEVLLKAGADVNAKDVTGDTPLHLAAQHGHLEIVEVLLKAGADVNAQDERGWTPADLAADWGHEDIAEVLQKAA",binding result [5]: no binding (tested: 400 nM)
